{
  "source": "patent US7326418B2",
  "about": "“Identification of novel factors that block programmed cell death or apoptosis by targeting JNK” (University of Chicago, priority 2001, dated 2008)",
  "molecules": {"B1": {"name": "Gadd45β: purified recombinant His6-tagged Gadd45β protein; also used generically for the recombinant Gadd45β proteins (protein, UniProt O75293 1-160, looked up)", "Growth arrest and DNA …": "MTLEELVACDNAAQKMQTVTAAVEELLVAAQRQDRLTVGVYESAKLMNVDPDSVVLCLLAIDEEEEDDIALQIHFTLIQSFCCDNDINIVRVSGMQRLAQLLGEPAETQGTTEARDLHCLLVTNPHTDAWKSHGLVEVASYCEESRGNNQWVPYISLQER", "modifications": "His6 tag", "notes": "purified recombinant His6-tagged Gadd45β protein; also used generically for the recombinant Gadd45β proteins"}, "B2": {"name": "His6-Gadd45β: human full-length Gadd45β purified from E. coli as His6-tagged protein (protein, UniProt O75293 1-160, looked up)", "chain": "B1 Growth arrest and DNA …", "modifications": "full-length His6 tag", "notes": "human full-length Gadd45β purified from E. coli as His6-tagged protein"}, "B3": {"name": "GST-Gadd45β: full-length murine Gadd45β directly fused to GST, purified from E. coli (protein)", "chain": "MTLEELVASDNAVQKMQAVTAAVEQLLVAAQRQDRLTVGVYEAAKLMNVDPDSVVLCLLAIDEEEEDDIALQIHFTLIQSFCCDNDIDIVRVSGMQRLAQLLGEPAETLGTTEARDLHCLLVTNCHTDSWKSQGLVEVASYCEESRGNNQWVPYISLEER", "modifications": "left off: a dimerising Fc or GST", "notes": "full-length murine Gadd45β directly fused to GST, purified from E. coli"}},
  "target": "T1, MKK3b (Homo sapiens, UniProt P46734)",
  "T1 construct": "expressed in transfected cells; host or cells: HEK-293; anti-FLAG immunoprecipitate",
  "T1 sequence (P46734 1-347)": "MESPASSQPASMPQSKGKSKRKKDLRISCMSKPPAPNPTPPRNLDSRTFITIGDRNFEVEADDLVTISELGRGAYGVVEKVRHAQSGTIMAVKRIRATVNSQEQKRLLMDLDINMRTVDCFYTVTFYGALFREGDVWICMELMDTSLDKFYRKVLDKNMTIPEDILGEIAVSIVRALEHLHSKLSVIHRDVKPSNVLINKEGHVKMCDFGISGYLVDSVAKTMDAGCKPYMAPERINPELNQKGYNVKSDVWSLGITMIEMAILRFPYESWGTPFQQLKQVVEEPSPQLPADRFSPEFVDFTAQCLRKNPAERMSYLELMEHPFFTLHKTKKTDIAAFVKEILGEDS",
  "experiment": "Kinase assay of immunoprecipitated FLAG-MKK3b with recombinant Gadd45β proteins",
  "type": "biochemical",
  "details": "in vitro, even at high concentrations",
  "method": "Next, the functional consequences, in vitro, of the physical interactions of Gadd45β with kinases in the JNK pathway were assessed. Murine and human, full-length Gadd45J3 proteins were purified from E. coli as GST-Gadd45β and His6-tagged Gadd45β (His6 disclosed as SEQ ID NO: 46), respectively, according to standard procedures. Prior to employing these proteins in in vitro assays, purity of all recombinant polypeptides was assured by >98%, by performing Coomassie blue staining of SDS polyacrylamide gels. Then, the ability of these proteins, as well as of control GST and His6-EF3 (His6 disclosed as SEQ ID NO: 46)proteins, to inhibit kinases in the JNK pathways was monitored in vitro. FLAG-tagged JNKK2, JNKK1, MKK3, and ASK1 were immunoprecipitated from transiently transfected 293 cells using anti-FLAG antibodies and pre-incubated for 10 minutes with increasing concentrations of recombinant proteins, prior to the addition of specific kinase substrates (i.e. GST-JNK1 with JNKK1 and JNKK2; GST-p38[…] with MKK3; GST-JNNK1 or GST-JNKK2 with ASK1). […] These findings indicate that, upon binding to Gadd45β, JNKK2 is effectively inactivated.\nA question was whether Gadd45β inhibited active MKK7, in vitro. FLAG-MKK7 was immunoprecipitated from TNFα-treated or untreated 293 cells, and kinase assays were performed in the presence of purified His6-Gadd45β (His6 disclosed as SEQ ID NO: 46), GST-Gadd45β, or control proteins (FIG. 28d; see also FIG. 28g). […] Consistent with the in vivo findings (FIG. 27), the inhibitory activity of Gadd45β was specific. […] Indeed, the effects of Gadd45β on MKK7 phosphorylation by TNFα may be due inhibition of the MKK7 ability to auto-phoshorylate and/or to serve as substrate for upstream kinases. Altogether, the findings identify MKK7 as a target of Gadd45β, and of NF-[…]B, in the JNK cascade. Of interest, MKK7 is a selective activator of JNK, and its ablation abolishes JNK activation by TNFα. Thus, blockade of MKK7 is sufficient on its own to explain the effects of Gadd45β on JNK signaling—i.e. its specific and near-complete suppression of this signaling. […]",
  "data": [
    {"molecule": "B1", "values": [
      {"measurement": "effect on MKK3/MKK3b kinase activity", "result": "did not hamper"}
    ]},
    {"molecule": "B2", "values": [
      {"measurement": "effect on MKK3/MKK3b kinase activity", "result": "neither GST-Gadd45β nor His6-Gadd45β (His6 disclosed as SEQ ID NO: 46) had significant effects"}
    ]},
    {"molecule": "B3", "values": [
      {"measurement": "effect on MKK3/MKK3b kinase activity", "result": "neither GST-Gadd45β nor His6-Gadd45β (His6 disclosed as SEQ ID NO: 46) had significant effects"}
    ]}
  ]
}
